Series [1] concerns BCKD E1 (an alpha2beta2 heterotetramer).
The target of series [2] is 147 kDa GST-tagged human ACL (Sigma, SRP0288) (UniProt P53396).
Series [3] addresses V5-tagged human ACL purified from Fao hepatoma cells (UniProt P53396).
The test system of series [4] is AKT. Kind of series: AKT ser473 phosphorylation in Fao hepatoma cells. The following applies: 10 μM for 1 hour. In kind it is cell-based. The protocol:
Cell culture studies: Fao hepatoma cells (Sigma) were cultured in RPMI-1640 (Gibco) containing 10% FBS (Sigma). […] Human embryonic kidney (HEK) 293 cells were used to visualize localization of CMV-ΔMTS-BDK-GFP and control CMV-GFP constructs by confocal microscopy. Cells were plated and transfected in a 96 well glass bottom plate that had been pre-coated with poly-D lysine solution for 1-hour at room temperature. For transfection, cells were incubated in Opti-mem containing 1.5 μl of Mirus, TransIT-293 transfection reagent and 1 μg DNA per well. After 24 hours, mitochondrial and nuclear staining was performed in live cells using Image-IT Live Mito and nuclear labeling Kit (Cell permeant MitoTracker Red CMXRos (579/599 nm) and Hoechst 33342 (350/461 nm) ThermoFisher). Confocal images were captured using a Zeiss LSM 510 inverted confocal microscope using a 405 diode for Hoechst, Argon for GFP, and HeNe 561 for MitoTracker. Images were captured in one plane using a 63× oil objective. Each wavelength was acquired separately and then consolidated after acquisition.
Immunoblotting: Tissue lysates used for immunoblotting were prepared in Cell Lysis Buffer (Cell Signaling Technologies) containing protease inhibitor tablets (Roche), phosphatase inhibitor cocktails 2 and 3 (Sigma), and 10 mM PMSF. […] Immunoblots were developed using a Li-Cor Odyssey CLx and quantified using the Li-Cor software.

Regarding “40 kDa catalytic subunit of bovine PKA (Promega, V5161)”, the “32P phosphorylation of BCKDH (purified proteins, SDS gel, autoradiograph)” value in series [1] is reported as “PKA caused a lesser, but still clear increase in BCKDH phosphorylation”. Moreover, the “incorporation of [gamma-32P]-phosphoryl group into ACL (purified proteins, SDS gel, autoradiograph)” value in series [2] is “PKA caused a clear increase in ^32P labeling of ACL”.
Regarding “V5 tagged human BDK purified from Fao hepatoma cells”, in series [3], the “ACL phosphorylation on ser455 measured by immunoblot after mixing of the purified proteins with ATP” value is “This study confirmed that BDK specifically phosphorylates ser455 of the V5-tagged human ACL”.
Take `O=c1[nH]c2ccccc2n1C1CCN(Cc2ccc(-c3[nH]c4cc5ncnc5cc4nc3-c3ccccc3)cc2)CC1` [A6730]: in series [4], the “phosphorylation of ser473 on AKT” value is “reduce”.
In the case of “MBP-BDK (maltose-binding protein-tagged mature BDK lacking the mitochondrial-targeting pre-sequence; amino acid residue 31-382)”, the “32P phosphorylation of the purified e1a subunit of BCKDH (purified proteins, SDS gel, autoradiograph)” value in series [1] is recorded as “MBP-BDK also caused a robust increase in phosphorylation of the purified e1a subunit of BCKDH”. Further, the “incorporation of [gamma-32P]-phosphoryl group into ACL (purified proteins, SDS gel, autoradiograph)” value in series [2] is recorded as “MBP-BDK also caused phosphorylation of ACL, albeit to a lesser extent than PKA”.

The values above are taken from US20210267939A1, “COMPOSITIONS AND METHODS FOR TREATING NAFLD/NASH AND RELATED DISEASE PHENOTYPES” (priority 2018, published 2021).
